Measurements: the RNAGym collection of RNA variant scans (doi:10.7554/elife.80360)

B1: CPEB3 Ribozyme (parent)
chain: GGGGGCCACAGCAGAAGCGUUCACGUCGCGGCCCCUGUCAGAUUCUGGUGAAUCUGCGAAUUCUGCUGU

Variants of: B1
Test: self-cleavage, relative activity (ratio to wild type); higher = more cleavage; co-transcriptional

| Variant | self-cleavage |
| --- | --- |
| C22A U62C | 0.17 |
| C22A U62A | 0.148 |
| C22U A52U | 0.315 |
| C22U A40U | 0.184 |
| C22U A40C | 0.165 |
| C22U A40G | 0.266 |
| C22G C45U | 0.158 |
| C22A G37A | 0.212 |
| A23C G28U | 0.2 |
| C22G U53A | 0.136 |
| C22A A52C | 0.173 |
| C22U C39U | 0.179 |
| C22G U69A | 0.242 |
| C22G U69G | 0.349 |
| A23C G25U | 0.176 |
| A23C G25C | 0.151 |
| A23C C35U | 0.844 |
| A23C C35A | 0.26 |
| C22A C63U | 0.194 |
| C22A C54A | 0.0889 |
| C22G G50A | 0.189 |
| C22G C33G | 0.216 |
| A23C C32U | 0.85 |
| C22A U55G | 0.162 |

| Variant | self-cleavage |
| --- | --- |
| C22A C27A | 0.158 |
| C22A C27G | 0.168 |
| C22A C27U | 0.144 |
| A23C U55A | 0.866 |
| C22U U62C | 0.171 |
| C22U C57G | 0.144 |
| C22U C57U | 0.192 |
| C22A U36C | 0.169 |
| C22U U61A | 0.18 |
| A23C G31A | 0.86 |
| C22A C33G | 0.168 |
| C22A A59U | 0.198 |
| C22A A59C | 0.192 |
| C22A A59G | 0.232 |
| A23C U26A | 0.628 |
| A23C U26C | 0.966 |
| C22A U53C | 0.239 |
| A23C U49G | 0.916 |
| C22A C66A | 0.232 |
| C22G C27G | 0.16 |
| A23C A59U | 0.67 |
| C22G U49A | 0.172 |
| C22A U44A | 0.184 |
| C22A U44C | 0.217 |

| Variant | self-cleavage |
| --- | --- |
| C22A U38C | 0.151 |
| A23C U46C | 0.959 |
| A23C U46G | 0.962 |
| C22U G48A | 0.379 |
| A23C C63U | 0.969 |
| C22U G28C | 0.126 |
| C22G G48C | 0.212 |
| A23C G58A | 0.89 |
| A23C G58U | 0.929 |
| C22U C66U | 0.33 |
| A23C C54A | 0.849 |
| A23C G48A | 0.978 |
| A23C G48U | 0.942 |
| C22G A23C | 0.179 |
| C22G A23U | 0.24 |
| A23C G68A | 0.969 |
| C22U U49A | 0.297 |
| C22G C32U | 0.182 |
| A23C U43C | 0.89 |
| C22U U46G | 0.274 |
| C22U U46C | 0.369 |
| C22A G58C | 0.184 |
| C22U A42G | 0.204 |
| A23C G37U | 0.299 |

| Variant | self-cleavage |
| --- | --- |
| C22A G47C | 0.157 |
| A23C C39U | 0.796 |
| C22U U26G | 0.207 |
| C22U U26C | 0.279 |
| A23C G47C | 0.961 |
| A23C G47A | 0.924 |
| A23C G47U | 0.993 |
| C22A G65C | 0.147 |
| C22A G50A | 0.24 |
| A23C C29G | 0.485 |
| C22G A40U | 0.105 |
| C22G A40C | 0.23 |
| C22G A40G | 0.204 |
| C22A A60U | 0.222 |
| C22A A60G | 0.279 |
| A23C A42U | 0.869 |
| A23C A42C | 0.92 |
| C22G C34U | 0.203 |
| C22G U44G | 0.16 |
| C22G G56C | 0.158 |
| C22G G56A | 0.241 |
| C22A G56U | 0.151 |
| C22G C66U | 0.182 |
| C22U C32G | 0.133 |

| Variant | self-cleavage |
| --- | --- |
| C22G U64G | 0.157 |
| C22A C39A | 0.161 |
| C22A C39G | 0.223 |
| C22A G68A | 0.247 |
| C22A G68C | 0.27 |
| C22A G68U | 0.264 |
| C22A U67C | 0.21 |
| A23C G41A | 0.809 |
| A23C G41C | 0.725 |
| C22U G37U | 0.181 |
| C22U A51U | 0.295 |
| C22U G68U | 0.51 |
| A23C C33A | 0.746 |
| C22A G30A | 0.167 |
| C22U C29A | 0.172 |
| C22A C24A | 0.0966 |
| A23C G56U | 0.88 |
| C22G G28A | 0.16 |
| A23C C66G | 0.81 |
| A23C U36A | 0.335 |
| A23C U36G | 0.326 |
| C22U A59G | 0.324 |
| C22A U26A | 0.117 |
| C22G C29A | 0.258 |

| Variant | self-cleavage |
| --- | --- |
| C22G G68C | 0.156 |
| C22G G68A | 0.267 |
| C22U G30A | 0.164 |
| C22U G30U | 0.221 |
| A23C G30U | 0.317 |
| A23C C27G | 0.228 |
| C22G G58A | 0.103 |
| A23C U53A | 0.89 |
| C22U U64C | 0.279 |
| C22U U64G | 0.237 |
| C22G U26C | 0.209 |
| C22G U26A | 0.144 |
| A23C U44G | 0.946 |
| A23C U44A | 0.936 |
| C22G C57A | 0.221 |
| C22G C57U | 0.148 |
| C22A C45A | 0.155 |
| C22A C45U | 0.158 |
| C22G G31A | 0.137 |
| C22G G31C | 0.0776 |
| C22U U43C | 0.295 |
| A23C A40U | 0.79 |
| A23C A40C | 0.544 |
| C22U U67G | 0.332 |

| Variant | self-cleavage |
| --- | --- |
| C22U U67C | 0.365 |
| C22U C54G | 0.285 |
| C22U C54U | 0.349 |
| C22A A42U | 0.181 |
| C22A U43C | 0.167 |
| C22A C57A | 0.174 |
| A23C U38C | 0.85 |
| A23C U38A | 0.75 |
| C22G G37C | 0.956 |
| C22G G37A | 0.174 |
| C22U C24A | 0.179 |
| A23C A60U | 0.516 |
| C22A C34G | 0.175 |
| C22A C34U | 0.219 |
| C22G U61A | 0.181 |
| C22G U46G | 0.178 |
| C22G A60G | 0.265 |
| C22U A23C | 0.276 |
| C22U C35G | 0.165 |
| C22G C24G | 0.0697 |
| C22G C24U | 0.182 |
| C22A G25C | 0.255 |
| C22A A51C | 0.176 |
